Measured values reported in article PMC13600239.

How the values were obtained:
Rwt7^HMA-6His (wheat) = test: ITC; […]; 25°C; 20 mM HEPES pH 7.5, 150 mM NaCl; triplicate, […]
[1] = target: Rmo2^HMA (integrated HMA domain of the barley tandem kinase protein Rmo2) (barley); test: as above

PWT7 (Magnaporthe oryzae effector) (natural protein)
Kd (Rwt7^HMA-6His (wheat)): 2.92 nM

PBY2 (Magnaporthe oryzae effector) (natural protein)
Kd [1]: 53.5 nM
